Test results reported in US20120129766A1 (IRM, published 2012).
Substitutions are numbered along the chain they refer to.

T1: human β-klotho (human, UniProt Q86Z14 1-1044)
T1 sequence (looked up): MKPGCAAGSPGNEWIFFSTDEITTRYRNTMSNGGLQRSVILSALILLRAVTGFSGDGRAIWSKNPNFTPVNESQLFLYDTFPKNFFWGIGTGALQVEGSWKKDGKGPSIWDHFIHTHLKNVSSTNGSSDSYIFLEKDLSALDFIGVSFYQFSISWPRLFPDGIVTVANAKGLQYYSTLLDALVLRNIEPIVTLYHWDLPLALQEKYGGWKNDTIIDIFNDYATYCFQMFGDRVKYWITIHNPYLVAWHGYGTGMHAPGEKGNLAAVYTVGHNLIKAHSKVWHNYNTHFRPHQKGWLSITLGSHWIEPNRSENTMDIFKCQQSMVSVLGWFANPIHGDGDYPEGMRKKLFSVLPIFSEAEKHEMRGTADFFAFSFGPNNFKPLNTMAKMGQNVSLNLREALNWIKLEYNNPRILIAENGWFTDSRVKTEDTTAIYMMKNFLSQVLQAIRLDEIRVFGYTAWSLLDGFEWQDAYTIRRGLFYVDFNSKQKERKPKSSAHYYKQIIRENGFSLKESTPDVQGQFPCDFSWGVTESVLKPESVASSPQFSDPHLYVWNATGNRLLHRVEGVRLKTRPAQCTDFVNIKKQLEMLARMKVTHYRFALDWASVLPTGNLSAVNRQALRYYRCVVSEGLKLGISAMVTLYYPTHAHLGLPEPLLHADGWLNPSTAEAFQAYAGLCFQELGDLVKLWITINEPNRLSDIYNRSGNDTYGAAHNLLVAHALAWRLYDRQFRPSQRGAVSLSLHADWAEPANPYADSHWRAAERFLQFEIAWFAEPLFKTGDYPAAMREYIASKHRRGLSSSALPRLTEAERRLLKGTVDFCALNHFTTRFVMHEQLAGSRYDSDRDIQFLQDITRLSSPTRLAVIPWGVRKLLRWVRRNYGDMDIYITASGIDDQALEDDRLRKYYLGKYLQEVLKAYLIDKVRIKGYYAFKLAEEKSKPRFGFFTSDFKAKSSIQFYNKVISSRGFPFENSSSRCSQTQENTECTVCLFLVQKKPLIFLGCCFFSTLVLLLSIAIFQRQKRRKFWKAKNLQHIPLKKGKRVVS

B1: hFGF21(33-209)-V54 (ligand)
chain: DSSPLLQFGGQVRQRYLYTDDAQQTEAHLEIREDGTVGGAAHQSPESLLELKALKPGVIQILGVKTSRFLCQKPDGTLYGSLHFDPEACSFRELLLENGYNVYQSEAHGLPLHLPGNRSPHRDPASQGPARFLPLPGLPPAPPEPPGILAPQPPDVGSSDPLAMVGPSQGRSPSYAS
B2: hFGF21(33-209)-V85 (ligand)
chain: B1 chain with T77A, N98E, R122C, S126P, P142L
B3: hFGF21(33-209)-V76-154C-40 kDa-bPEG-MA (ligand)
chain: B1 chain with Q24E, T77A, N98D, R122C, S126P, P142L
modifications: 40 kDa branched maleimido-PEG on Cys 154 (numbered on SEQ ID NO:1)
B4: hFGF21(33-209)-V83 (ligand)
chain: B1 chain with H42D, N98D, R122C, Q127R, P142L, G170A
B5: hFGF21(33-209)-V8 (ligand)
chain: B1 chain with Q24E, E50Q, K65Q, T77A, A107T, R118K, P142L, G170A
B6: hFGF21(33-209)-V63 (ligand)
chain: B1 chain with Q23C, E50Q, K73R, T77A, A107T, G116C, Q127R, G170A
B7: hFGF21(33-209)-V56 (ligand)
chain: B1 chain with E50Q, T66A, T77A, A107T, R118K, G170A
B8: hFGF21(33-209)-V76 (ligand)
chain: B1 chain with Q24E, T77A, N98D, R122C, S126P, P142L
B9: hFGF21(33-209)-V73 (ligand)
chain: B1 chain with Q24E, T77A, N98E, S126P, P142L
B10: hFGF21(33-209)-V58 (ligand)
chain: B1 chain with E50Q, K73R, A107T, G170A
B11: hFGF21(33-209)-V81 (ligand)
chain: B1 chain with T77A, N98D, R122C, P142L
B12: hFGF21(33-209)-V64 (ligand)
chain: B1 chain with Q23C, H42D, E50Q, K73R, A107T, G116C, Q127R, G170A
B13: hFGF21(33-209)-V60 (ligand)
chain: B1 chain with Q23C, K73R, G116C, Q127R
B14: hFGF21(33-209)-V57 (ligand)
chain: B1 chain with E50Q, T66A, K73R, T77A, A107T, G170A
B15: hFGF21(33-209)-V73-N-40 kDa bPEG-AL (ligand)
chain: B1 chain with Q24E, T77A, N98E, S126P, P142L
modifications: 40 kDa branched PEG (aldehyde reagent) on the N-terminal amine
B16: hFGF21(33-209)-V79 (ligand)
chain: B1 chain with T77A, N98D, R122C, S126P, P142L, G170A
B17: hFGF21(33-209)-V55 (ligand)
chain: B1 chain with V37A, T77A
B18: hFGF21(33-209)-WT-CH (ligand)
chain: B1 chain with H42D, E50Q, K73R, T77A, N98D, R118K, S126P, Q127R, P142L, A163S
B19: hFGF21(33-209)-V84 (ligand)
chain: B1 chain with H42D, K73R, N98D, A107T, R122C, Q127R, P142L, G170A
B20: hFGF21(33-209)-V80 (ligand)
chain: B1 chain with H42D, N98D, R122C, S126P, P142L, G170A
B21: hFGF21(33-209)-V59 (ligand)
chain: B1 chain with Q23C, K73R, T77A, G116C
B22: hFGF21(33-209)-V82 (ligand)
chain: B1 chain with H42D, N98D, R122C, P142L
B23: hFGF21(33-209)-V61 (ligand)
chain: B1 chain with Q23C, V37A, K73R, T77A, G116C, Q127R
B24: hFGF21(33-209)-V9 (ligand)
chain: B1 chain with A22D, E50Q, T66A, T77A, A107T, R118K, P142L, G170A
B25: hFGF21(33-209)-V62 (ligand)
chain: B1 chain with Q23C, E50Q, K73R, T77A, A107T, G116C, R118K, G170A
B26: hFGF21(33-209)-V86 (ligand)
chain: DSSPLLQFGGQVRQRYLYTDDAQQTEAHLEIREDGTVGGAADQSPESLLQLRALRPGVIQILGVRTSRFLCQRPDGALYGSLHFDPEACSFRELLLEDGYNVYQSEAHGLPLHLPGNRSPHKDPAPRGPARFLPLPGLPPAPPEPPGILAPQPPDVGSSDPLAMVGPSQGRSPSYAS
B27: hFGF21(33-209)-V87 (ligand)
chain: B26 chain with Q23C, G116C

Each binder was assayed against T1, human β-klotho (assay: cell-based or functional assay).

Binder | EC50 (nM), pERK In Cell Western [nM] | Fold-WT (EC50 of variant / EC50 of FGF21-WT) [fold]
B1 | 25 | 9.2
B2 | 2 | 0.3
B3 | 8.3 | 2.4
B4 | 0.21 | 0.38
B5 | 14 | 5
B6 | 13 | 3.7
B7 | 37 | 14
B8 | 3.4 | 0.47
B9 | 5.8 | 1.7
B10 | 3.6 | 2.6
B11 | 11 | 2.1
B12 | 2.9 | 0.8
B13 | 7.6 | 2.2
B14 | 22 | 5.4
B15 | 191 | 66
B16 | 2.2 | 0.4
B17 | 34 | 13
B18 | 7.4 | 1
B19 | 4.5 | 1.1
B20 | 2.2 | 0.4
B21 | 6.5 | 1.6
B22 | 1.5 | 2.7
B23 | 22 | 6.3
B24 | 13 | 2.4
B25 | 24 | 6.8
B26 | 8.5 | 4.5
B27 | 1.9 | 1.6
